From patent US20240002497A1 (Merck Sharp & Dohme, published 2024)
Positions count from the first letter of the chain named. Names and notes keep the numbering of the source. Where two headings read alike, the source gives them in different places.

Assays:
huNav1.7α [1] = target: T1, huNav1.7α (human, UniProt Q15858 1-1988); experiment: binding FACS, HEKa cells
T1 construct: HEK cells expressing the α subunit alone; also called HEKa; HEK huNav1.7α
How it was run: (§1)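 Cells in FACS buffer (PBS, 10% FBS, NaN₃) were incubated with purified FLAG3-tagged ISVD for 30 minutes at 4° C. Bound ISVD was detected by flow cytometry with murine anti-Flag, and dead cells were excluded with 1 μg/mL propidium iodide.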

huNav1.7α+β1 [2] = target: T2, huNav1.7α+β1 (human, UniProt Q15858 1-1988; Q07699 19-218); experiment: binding FACS, HEKa/β1 cells
T2 construct: also called huNav1.7-beta1; HEKa/β1
How it was run: as §1

huNav1.7α+β1-β2-β3 = target: T3, huNav1.7α+β1-β2-β3 (human, UniProt Q15858 1-1988; Q07699 19-218; O60939 30-215; Q9NY72 23-215); experiment: binding FACS, HEK FlpIn cells
T3 construct: 5N11S variant; also called huNav1.7-beta1-beta2-beta3; huNav1.7α+Navβ1-Navβ2-Navβ3

huNav1.7α+β1 [3] = target: T2, huNav1.7α+β1; experiment: cell-based or functional assay
huNav1.7α [4] = target: T1, huNav1.7α; experiment: cell-based or functional assay
rhNav1.7α+β1-β2-β3 [5] = target: T4, rhNav1.7α+β1-β2-β3 (rhesus monkey α subunit with human β …); experiment: cell-based or functional assay
rhNav1.7α = rhNav1.7α (rhesus monkey, UniProt Q15858 1-1988 (human entry)); experiment: cell-based or functional assay
huNav1.7α [6] = target: T1, huNav1.7α; experiment: binding FACS, HEKa cells; remark: listed apart in the source
huNav1.7α+β1 [7] = target: T2, huNav1.7α+β1; experiment: binding FACS, HEKa/β1 cells; remark: listed apart in the source
rhNav1.7α+β1-β2-β3 [8] = target: T4, rhNav1.7α+β1-β2-β3; experiment: binding FACS, CHO FlpIn cells
huNav157chim14 = target: T5, huNav157chim14 (human); experiment: binding FACS, HEK Flp-In
T5 construct: HEK Flp-In cells; also called huNav157 chimera 14

huNav1.7α + β1 [9] = target: T6, huNav1.7α + β1 (human); experiment: binding FACS, HEK
T6 construct: HEK293 cells; also called huNav1.7-beta1; huNav1.7-β1

huNav1.7α [10] = target: T7, huNav1.7α (human, UniProt Q15858 1-1988); experiment: binding FACS, HEK
T7 construct: HEK cells expressing the α subunit without β subunits; also called huNav1.7 (alpha-subunit); Human Nav1.7α

huNav1.7α + β1 [11] = target: T6, huNav1.7α + β1; experiment: competition FACS vs EC25 of F103275B05(N93R), HEK
huNav1.7α [12] = target: T7, huNav1.7α; experiment: competition FACS vs EC25 of F103275B05(N93R), HEK
huNav1.7α + β1-β2-β3 [13] = target: T8, huNav1.7α + β1-β2-β3 (human, UniProt Q15858 1-1988; A5A6L6 19-218; O60939 30-215; Q2KI11 23-215); experiment: competition FACS vs EC25 of F103275B05(N93R), HEK FlpIn
T8 construct: also called huNav1.7-beta1-beta2-beta3; huNav1.7-β1-β2-β3

huNav1.7α + β1-β2-β3 [14] = target: T8, huNav1.7α + β1-β2-β3; experiment: competition FACS vs EC25 of F103275B05(N93R), CHO FlpIn
rhNav1.7α + β1-β2-β3 = target: T9, rhNav1.7α + β1-β2-β3 (rhesus monkey); experiment: competition FACS vs EC40 of F103275B05(N93R), CHO FlpIn
T9 construct: also called rhNav1.7-beta1-beta2-beta3; rhNav1.7-β1-β2-β3

B1: F010300534 (VHH)
VHH: EVQLVESGGGLVQPGGSLRLSCAASGMLFNANTQGWYRQAPGKQRELVAFIFSGGYVNYVDSVKGRFTISRDNAKRTMYLQMNSLKPEDSAIYYCSLSRYLGQGTLVTVSS
notes: vs F0103265A11: T57V
For B1, the binding result (huNav1.7α [1]) was “no binding”, the “Bmax relative to '535” value (huNav1.7α+β1 [2]) was 62% and the EC50 (huNav1.7α+β1 [2]) was 11 nM. For the same binder, the EC50 (huNav1.7α+β1-β2-β3) was 72 nM.

B2: F010301463 (VHH)
VHH: B1 VHH with A31R, V57T, V60N, S96A, L101Q
notes: vs F0103265A11: A31R, V60N, S93A, L103Q
B2 was tested, and the “Bmax relative to '535” value (huNav1.7α+β1 [2]) was 120%, the EC50 (huNav1.7α+β1 [2]) was 2.5 nM and the EC50 (huNav1.7α+β1-β2-β3) was 4.3 nM.

B3: F010300535 (VHH)
VHH: B1 VHH with S53W, V57T
notes: vs F0103265A11: S53W
For B3, the EC50 (huNav1.7α [1]) was 720 nM, the “Bmax relative to '535” value (huNav1.7α+β1 [2]) was 100% and the EC50 (huNav1.7α+β1 [2]) was 5.5 nM. The EC50 (huNav1.7α+β1-β2-β3) was 16 nM.

B4: F010300536 (VHH)
VHH: B1 VHH with V57T, N58T
notes: vs F0103265A11: N58T
With B4 the EC50 (huNav1.7α [1]) was 660 nM, the “Bmax relative to '535” value (huNav1.7α+β1 [2]) was 77% and the EC50 (huNav1.7α+β1 [2]) was 9 nM. For the same binder, the EC50 (huNav1.7α+β1-β2-β3) was 27 nM.

B5: F010301458 (VHH)
VHH: B1 VHH with A31R, Y56W, V57T, V60N, S96A, L101Q
notes: vs F0103265A11: A31R, Y56W, V60N, S93A, L103Q
With B5 the “Bmax relative to '535” value (huNav1.7α+β1 [2]) was 120%, the EC50 (huNav1.7α+β1 [2]) was 2.2 nM and the EC50 (huNav1.7α+β1-β2-β3) was 4.1 nM.

B6: F010300659 (VHH)
VHH: EVQLVESGGGLVQPGGSLRLSCAASGPVFNINSMAWYRRAPGKQRELVAYSTPGWDWNYADSVKGRFTISRDNAKRVYLQMNSLTPEDTAVYYCRWLLQPSIYDISRTYWGQGTLVTVSS
notes: also called F0103275B05(S27P, I28V, S50Y, N53P, G55W, S56D, T57W, N93R, A94W)+FLAG3-HIS6
With B6 the “single pulse IC50” value (huNav1.7α+β1 [3]) was 85 nM, the “2-pulse IC50 [M], P1” value (huNav1.7α [4]) was 1e-06 M and the “2-pulse IC50 [M], P2” value (huNav1.7α [4]) was 8e-07 M. The “single pulse IC50” value (rhNav1.7α+β1-β2-β3 [5]) was 180 nM, the “2-pulse IC50 [M], P1” value (rhNav1.7α) was 1e-06 M and the “2-pulse IC50 [M], P2” value (rhNav1.7α) was 7e-07 M. The EC50 (huNav1.7α [6]) was 9.7 nM, the EC50 (huNav1.7α+β1 [7]) was 27 nM and the EC50 (rhNav1.7α+β1-β2-β3 [8]) was 55 nM.

B7: F010300702 (bispecific antibody, V domains shown, not shown: small tags and cut ends)
VH: B6 VHH with P27S, V28I, Y50S, P53N, W55G, D56S, W57T, W96A
notes: also called F010300702 (n = 15); control bivalent ISVD
An MFI (huNav157chim14) of 27700 MFI was found for B7 in this work.

B8: F010300900 (VHH)
VHH: B6 VHH with S33R, Y50S, W55G, W57T, T108I
notes: vs F0103275B05: S27P, I28V, S33R, N53P, S56D, N93R, A94W, T101I
B8 was tested, and the “single pulse IC50” value (huNav1.7α+β1 [3]) was 200 nM, the “single pulse IC50” value (rhNav1.7α+β1-β2-β3 [5]) was 36 nM and the EC50 (huNav1.7α [6]) was 20 nM. For the same binder, the EC50 (huNav1.7α+β1 [7]) was 70 nM and the EC50 (rhNav1.7α+β1-β2-β3 [8]) was 25 nM.

B9: F010300990 (VHH)
VHH: B6 VHH with S33R, W55G, D56S, W57T, R95N, W96A, T108I
notes: vs F0103275B05: S27P, I28V, S33R, S50Y, N53P, T101I
B9 was tested, and the “single pulse IC50” value (huNav1.7α+β1 [3]) was 250 nM, the “single pulse IC50” value (rhNav1.7α+β1-β2-β3 [5]) was 100 nM and the EC50 (huNav1.7α [6]) was 4.3 nM. The EC50 (huNav1.7α+β1 [7]) was 65 nM and the EC50 (rhNav1.7α+β1-β2-β3 [8]) was 38 nM.

B10: F010300948 (VHH)
VHH: B6 VHH with S33R, Y50S, W55G, D56S, W57T, T108I
notes: vs F0103275B05: S27P, I28V, S33R, N53P, N93R, A94W, T101I
B10 was tested, and the “single pulse IC50” value (huNav1.7α+β1 [3]) was 320 nM, the “single pulse IC50” value (rhNav1.7α+β1-β2-β3 [5]) was 58 nM and the EC50 (huNav1.7α [6]) was 69 nM. It also gave an EC50 (huNav1.7α+β1 [7]) of 68 nM and an EC50 (rhNav1.7α+β1-β2-β3 [8]) of 20 nM.

B11: F010300880 (VHH)
VHH: B6 VHH with S33R, Y50S, W55G, W57T
notes: vs F0103275B05: S27P, I28V, S33R, N53P, S56D, N93R, A94W
In the case of B11, the “single pulse IC50” value (huNav1.7α+β1 [3]) is reported as 27 nM, the “single pulse IC50” value (rhNav1.7α+β1-β2-β3 [5]) is reported as 120 nM and the EC50 (huNav1.7α [6]) is reported as 15 nM. For the same binder, the EC50 (huNav1.7α+β1 [7]) was 44 nM and the EC50 (rhNav1.7α+β1-β2-β3 [8]) was 26 nM.

B12: F0103275B05-FLAG3 + HIS6 (VHH)
VHH: B6 VHH with P27S, V28I, Y50S, P53N, W55G, D56S, W57T, R95N, W96A
notes: also called F0103275B05 (parental)-FLAG-HIS6
An EC50 (huNav1.7α + β1 [9]) of 13 nM and an EC50 (huNav1.7α [10]) of 13 nM were found for B12 in this work.

B13: F010300191 (bispecific antibody)
chain: EVQLVESGGGLVQPGGSLRLSCAASGSIFNINSMAWYRRAPGKQRELVASSTNGGSTNYADSVKGRFTISRDNAKRVYLQMNSLTPEDTAVYYCNALLQPSIYDISRTYWGQGTLVTVSSGGGGSGGGGSGGGGSGGGGSGGGGSGGGGSGGGGSGGGGSGGGGSGGGGSEVQLVESGGGLVQAGGSLRLSCAASGGTGRRYAMGWFRQAPGKEREIVAAIRWSAMTYYADDGKGRFTISRDNAKNTVYLQMNSLKPEDTAIYYCAYTWDYFKYDQVRAYRGWGQGTLVTVSSGAADYKDHDGDYKDHDIDYKDDDDKGAAHHHHHH
notes: also called F0103275B05-50GS-F0103240B04-FLAG3-HIS6
An IC50 (huNav1.7α + β1 [11]) of 110 nM, an IC50 (huNav1.7α [12]) of 67 nM and an IC50 (huNav1.7α + β1-β2-β3 [13]) of 0.1 nM were found for B13 in this work.

B14: F010302380 (bispecific antibody)
chain: DVQLVESGGGLVQPGGSLRLSCAASGSIFNINSMAWYRRAPGKQRELVASSTNGGSTNYADSVKGRFTISRDNAKRVYLQMNSLTPEDTAVYYCRALLQPSIYDISRTYWGQGTLVTVSSGGGGSGGGGSGGGGSGGGGSGGGGSGGGGSGGGGSGGGGSGGGGSGGGGSEVQLVESGGGLVQAGGSLRLSCVTSGRTSDLSTMNWFRQAPGKEREFVARITRRGSTYYAESVKERFIISRDNAKNTVYLQMNSLKPEDTANYYCTAASEMGYHYRGQGTQVTVSSGAADYKDHDGDYKDHDIDYKDDDDKGAAHHHHHH
notes: also called F0103275B05(E1D, N93R)-50GS-F0103505D08(L108Q)-FLAG3-HIS6
An IC50 (huNav1.7α + β1 [11]) of 110 nM, an IC50 (huNav1.7α [12]) of 67 nM and an IC50 (huNav1.7α + β1-β2-β3 [14]) of 8.1 nM were found for B14 in this work. For the same binder, the IC50 (huNav1.7α + β1-β2-β3 [13]) was 8.7 nM and the IC50 (rhNav1.7α + β1-β2-β3) was 2 nM.
